# Results from patent US9266930.
# Where two headings read alike, the source gives them in different places.
# T1: HLA-DR1 (DRB1*0101) (human)
# T1 chain 1: not shown
# T1 chain 2: not shown
# T2: HLA-DR2w2β2 (DRB5*0101) (human)
# T2 chain 1: not shown
# T2 chain 2: not shown
# T3: HLA-DR4w15 (DRB1*0405) (human)
# T3 chain 1: not shown
# T3 chain 2: not shown
# T4: HLA-DR4w4 (DRB1*0401) (human)
# T4 chain 1: not shown
# T4 chain 2: not shown
# T5: HLA-DR5w11 (DRB1*1101) (human)
# T5 chain 1: not shown
# T5 chain 2: not shown
# T6: HLA-DR2w2β1 (DRB1*1501) (human)
# T6 chain 1: not shown
# T6 chain 2: not shown
# T7: HLA-DR5w12 (DRB1*1201) (human)
# T7 chain 1: not shown
# T7 chain 2: not shown
# T8: HLA-DR6w19 (DRB1*1302) (human)
# T8 chain 1: not shown
# T8 chain 2: not shown
# T9: HLA-DR7 (DRB1*0701) (human)
# T9 chain 1: not shown
# T9 chain 2: not shown
# T10: HLA-DR8w2 (DRB1*0802) (human)
# T10 chain 1: not shown
# T10 chain 2: not shown
# T11: HLA-DR9 (DRB1*0901) (human)
# T11 chain 1: not shown
# T11 chain 2: not shown
# Assays:
# [1] = target: HLA-A*1101 (human)
# [2] = target: HLA-A*1101 (purified HLA class I molecule) (human)
# [3] = target: T1, HLA-DR1 (DRB1*0101) (human); assay: inhibition of 125I-probe peptide binding to purified HLA-DR, gel filtration
# [4] = target: T2, HLA-DR2w2β2 (DRB5*0101) (human); assay: as above
# [5] = target: T3, HLA-DR4w15 (DRB1*0405) (human); assay: as above
# [6] = target: T4, HLA-DR4w4 (DRB1*0401) (human); assay: as above
# [7] = target: T5, HLA-DR5w11 (DRB1*1101) (human); assay: as above
# [8] = target: T1, HLA-DR1 (DRB1*0101) (human)
# [9] = target: T6, HLA-DR2w2β1 (DRB1*1501) (human)
# [10] = target: T2, HLA-DR2w2β2 (DRB5*0101) (human)
# [11] = target: T3, HLA-DR4w15 (DRB1*0405) (human)
# [12] = target: T5, HLA-DR5w11 (DRB1*1101) (human)
# [13] = target: HLA-DR2w2β1 (DRB1*1501) (human); remark: listed apart in the source
# [14] = target: HLA-DR2w2β2 (DRB5*0101) (human); remark: listed apart in the source
# [15] = target: HLA-DR3 (DRB1*0301) (human)
# [16] = target: HLA-DR4w15 (DRB1*0405) (human); remark: listed apart in the source
# [17] = target: HLA-DR5w11 (DRB1*1101) (human); remark: listed apart in the source
# [18] = target: HLA-DR1 (DRB1*0101) (human); remark: listed apart in the source
# [19] = target: HLA-DR4w4 (DRB1*0401) (human)
# [20] = target: T7, HLA-DR5w12 (DRB1*1201) (human)
# [21] = target: T7, HLA-DR5w12 (DRB1*1201) (human)
# [22] = target: T8, HLA-DR6w19 (DRB1*1302) (human)
# [23] = target: T9, HLA-DR7 (DRB1*0701) (human)
# [24] = target: T10, HLA-DR8w2 (DRB1*0802) (human)
# [25] = target: T11, HLA-DR9 (DRB1*0901) (human)
# [26] = target: HLA-DR3 (DRB1*0301) (human); assay: competition with 125I-labeled probe peptide on purified HLA-DR, gel filtration
# [27] = target: HLA-A*0201 (human); assay: competition with 125I probe peptide for purified HLA, gel filtration
# [28] = target: HLA-A*0203 (human); assay: as above
# [29] = target: HLA-A*0206 (human); assay: as above
# [30] = target: HLA-A*0201 (human)
# [31] = target: HLA-A*0201 (Human)
# [32] = target: HLA-A*1101 (human); remark: listed apart in the source
# [33] = target: HLA-A*0301 (human); assay: competition with 125I-labeled probe peptide for purified HLA, gel filtration; conditions: scale: ratio
# [34] = target: HLA-A*1101 (human); assay: as above; conditions: scale: ratio
# [35] = target: HLA-A*3301 (human); assay: as above; conditions: scale: ratio
# [36] = target: HLA-A*6801 (human); assay: as above; conditions: scale: ratio
# [37] = target: HLA-A*0301 (human); assay: competition with 125I-labelled standard peptide for purified HLA, gel filtration
# [38] = target: HLA-A*1101 (human); assay: as above
# [39] = target: HLA-A*3301 (human); assay: as above
# [40] = target: HLA-A*6801 (human); assay: as above
binder,measurement,setting,value
ADSAWENVK (modifications not checked) [… (Pf SSP2 position 216)],binding affinity ratio (IC50 of standard peptide / IC50 of test peptide),[1],0.0009
NLPNDKSDR (modifications not checked) [… (Pf SSP2 406)],binding affinity ratio (IC50 of standard peptide / IC50 of test peptide),[1],0.0002
"SDASKNKEK (modifications not checked) [… (Pf SSP2 105, 9-mer)]",binding affinity ratio (IC50 of standard peptide / IC50 of test peptide),[2],0.0002
"SVTCGKGTR (modifications not checked) [… (Pf SSP2 254, 9-mer)]",binding affinity ratio (IC50 of standard peptide / IC50 of test peptide),[2],0.0009
"TCGKGTRSRK (modifications not checked) [… (Pf SSP2 256, 10-mer)]",binding affinity ratio (IC50 of standard peptide / IC50 of test peptide),[2],0.0002
EALFQEYQCYGSSSN (modifications not checked),binding affinity ratio (relative binding) (ratio to standard peptide),[3],0.0001
same,binding affinity ratio (relative binding) (ratio to standard peptide),[4],-0.0005
same,binding affinity ratio (relative binding) (ratio to standard peptide),[5],-0.0009
same,binding affinity ratio (relative binding) (ratio to standard peptide),[6],0.0053
same,binding affinity ratio (relative binding) (ratio to standard peptide),[7],-0.0002
NSSIGLIMVLSFLFL (modifications not checked),binding affinity ratio (relative binding) (ratio to standard peptide),[8],0.004
same,binding affinity ratio (relative binding) (ratio to standard peptide),[9],0.025
same,binding affinity ratio (relative binding) (ratio to standard peptide),[10],0.0024
same,binding affinity ratio (relative binding) (ratio to standard peptide),[11],0.0035
same,binding affinity ratio (relative binding) (ratio to standard peptide),[12],-0.0005
VSTVLLGGVGLVLYN (modifications not checked),binding affinity ratio (IC50 of standard peptide / IC50 of test peptide),[13],0.008
same,binding affinity ratio (IC50 of standard peptide / IC50 of test peptide),[14],0.0005
same,binding affinity ratio (IC50 of standard peptide / IC50 of test peptide),[15],-0.0008
same,binding affinity ratio (IC50 of standard peptide / IC50 of test peptide),[16],-0.0009
same,binding affinity ratio (IC50 of standard peptide / IC50 of test peptide),[17],0.0003
IGPFMKAVCVEVEKT (modifications not checked),binding affinity ratio (IC50 of standard peptide / IC50 of test peptide),[18],0.0072
same,binding affinity ratio (IC50 of standard peptide / IC50 of test peptide),[13],0.0003
same,binding affinity ratio (IC50 of standard peptide / IC50 of test peptide),[15],-0.0008
same,binding affinity ratio (IC50 of standard peptide / IC50 of test peptide),[16],0.0086
same,binding affinity ratio (IC50 of standard peptide / IC50 of test peptide),[19],-0.0006
same,binding affinity ratio (IC50 of standard peptide / IC50 of test peptide),[17],-0.0004
ANQLVVILTDGIPDS (modifications not checked),binding affinity ratio (IC50 of standard peptide / IC50 of test peptide),[13],0.0008
same,binding affinity ratio (IC50 of standard peptide / IC50 of test peptide),[14],-0.0005
same,binding affinity ratio (IC50 of standard peptide / IC50 of test peptide),[17],-0.0002
"EALFQEYQCYGSSSN (modifications not checked) [… (Pf CSP DR-supermotif 15-mer, core …)]",binding affinity ratio (relative to standard peptide),[20],0.0001
VFFLALFFIIFNKES (modifications not checked) [… (Pf EXP 6)],binding affinity ratio (IC50 of standard peptide / IC50 of test peptide),[21],0.0002
same,binding affinity ratio (IC50 of standard peptide / IC50 of test peptide),[22],-0.0002
same,binding affinity ratio (IC50 of standard peptide / IC50 of test peptide),[23],0.0056
same,binding affinity ratio (IC50 of standard peptide / IC50 of test peptide),[24],-0.0007
same,binding affinity ratio (IC50 of standard peptide / IC50 of test peptide),[25],-0.0018
TVLLGGVGLVLYNTE (modifications not checked) [… (Pf EXP 90)],binding affinity ratio (IC50 of standard peptide / IC50 of test peptide),[21],0.0004
same,binding affinity ratio (IC50 of standard peptide / IC50 of test peptide),[23],0.0007
same,binding affinity ratio (IC50 of standard peptide / IC50 of test peptide),[24],-0.0002
ILSVFFLALFFIIFN (modifications not checked) [… (Pf EXP 3)],binding affinity ratio (IC50 of standard peptide / IC50 of test peptide),[21],0.0008
same,binding affinity ratio (IC50 of standard peptide / IC50 of test peptide),[22],0.0005
same,binding affinity ratio (IC50 of standard peptide / IC50 of test peptide),[23],0.011
same,binding affinity ratio (IC50 of standard peptide / IC50 of test peptide),[24],0.0031
same,binding affinity ratio (IC50 of standard peptide / IC50 of test peptide),[25],-0.0003
VSTVLLGGVGLVLYN (modifications not checked) [… (Pf EXP 88)],binding affinity ratio (IC50 of standard peptide / IC50 of test peptide),[21],0.0011
same,binding affinity ratio (IC50 of standard peptide / IC50 of test peptide),[22],0.0002
same,binding affinity ratio (IC50 of standard peptide / IC50 of test peptide),[23],0.002
same,binding affinity ratio (IC50 of standard peptide / IC50 of test peptide),[24],-0.0002
same,binding affinity ratio (IC50 of standard peptide / IC50 of test peptide),[25],0.012
VEALFQEYQCYGSSS (modifications not checked),binding affinity ratio (IC50 standard peptide / IC50 test peptide),[26],0.0082
FIIFNKESLAEKTNK (modifications not checked),binding affinity ratio (IC50 standard peptide / IC50 test peptide),[26],0.004
FMKAVCVEV (modifications not checked) [1167.16],IC50,[27],63 nM
same,IC50,[28],2.9 nM
same,IC50,[29],389 nM
GLIMVLSFL (modifications not checked) [1167.08],IC50,[27],22 nM
KILSVFFLA (modifications not checked) [1167.13],IC50,[29],8 nM
"NMPNDPNRNV (modifications not checked) [… (P. falciparum CSP, position 323, 10 amino acids)]",binding affinity ratio (IC50 of standard peptide / IC50 of test peptide),[30],0.0007
"SVFNVVNSSI (modifications not checked) [… (P. falciparum CSP, position 415, 10 amino acids)]",binding affinity ratio (IC50 of standard peptide / IC50 of test peptide),[30],0.0005
"VTCGNGIQV (modifications not checked) [… (P. falciparum CSP, position 375, 9 amino acids)]",binding affinity ratio (IC50 of standard peptide / IC50 of test peptide),[30],0.0011
"ILSVFFLAL (modifications not checked) [… (EXP position 3, 9 amino acids)]",binding affinity ratio (IC50 of standard peptide / IC50 of test peptide),[31],0.0058
"KLATSVLAGL (modifications not checked) [… (EXP position 75, 10 amino acids)]",binding affinity ratio (IC50 of standard peptide / IC50 of test peptide),[31],0.0047
"GTGSGVSSKK (modifications not checked) [… (P. falciparum EXP-1, position 28)]",binding affinity ratio (IC50 of standard peptide / IC50 of test peptide),[32],0.034
"GVSSKKKNK (modifications not checked) [… (P. falciparum EXP, position 32, 9 amino acids)]",binding affinity ratio (relative to standard peptide),[33],0.0001
same,binding affinity ratio (relative to standard peptide),[34],0.0002
"GVSSKKKNKK (modifications not checked) [… (P. falciparum EXP, position 32, 10 amino acids)]",binding affinity ratio (relative to standard peptide),[33],0.0011
same,binding affinity ratio (relative to standard peptide),[34],0.0002
"VSSKKKNKK (modifications not checked) [… (P. falciparum EXP, position 33, 9 amino acids)]",binding affinity ratio (relative to standard peptide),[33],0.0001
same,binding affinity ratio (relative to standard peptide),[34],0.0002
same,binding affinity ratio (relative to standard peptide),[35],0.001
same,binding affinity ratio (relative to standard peptide),[36],0.0002
PSPNPEEGK (modifications not checked),binding affinity ratio (IC50 of standard peptide / IC50 of test peptide),[37],0.0005
same,binding affinity ratio (IC50 of standard peptide / IC50 of test peptide),[38],0.0002
same,binding affinity ratio (IC50 of standard peptide / IC50 of test peptide),[39],0.001
same,binding affinity ratio (IC50 of standard peptide / IC50 of test peptide),[40],0.0002
QVRKHLNDR (modifications not checked),binding affinity ratio (IC50 of standard peptide / IC50 of test peptide),[37],0.0005
same,binding affinity ratio (IC50 of standard peptide / IC50 of test peptide),[38],0.0002
same,binding affinity ratio (IC50 of standard peptide / IC50 of test peptide),[40],0.0002
LALFFIIFNK (modifications not checked) [Pf EXP peptide … (position 9)],binding affinity ratio (relative to standard peptide),[1],0.053
